B1: Refmab #6 (antibody, human IgG1, V domains shown)
VH: QVQLQQPGAEVVKPGASVKMSCKASGYTFTSYYIHWIKQTPGQGLEWVGVIYPGNDDISYNQKFQGKATLTADKSSTTAYMQLSSLTSEDSAVYYCAREVRLRYFDVWGQGTTVTVSS
VL: EIVLTQSPGSLAVSPGERVTMSCKSSQSVFFSSSQKNYLAWYQQIPGQSPRLLIYWASTRESGVPDRFTGSGSGTDFTLTISSVQPEDLAIYYCHQYLSSRTFGQGTKLEIK
B2: Refmab #5 (antibody, human IgG1, V domains shown)
VH: QVQLVQSGAEVKKPGASVKVSCKASGYTFTNYDINWVRQAPGQGLEWIGWIYPGDGSTKYNEKFKAKATLTADTSTSTAYMELRSLRSDDTAVYYCASGYEDAMDYWGQGTTVTVSS
VL: DIQMTQSPSSLSASVGDRVTINCKASQDINSYLSWFQQKPGKAPKTLIYRANRLVDGVPSRFSGSGSGQDYTLTISSLQPEDFATYYCLQYDEFPLTFGGGTKVEIK

What was measured:
Assay in all cases: flow cytometry, transfected cells, IgG;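 further: CD33 point mutants transiently expressed in HEK293-T cells, antibody binding read by fluorescence, background subtracted and normalized to wild-type CD33 as 100%, duplicates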
human CD33 R122F = human CD33 R122F (human, UniProt P20138 18-364)
Experimental: (§1) An alanine scan on human CD33 was performed to the determine the residues on CD33 that are involved in binding to the antibodies investigated. […] Briefly, a mutation library of CD33 was created by high-throughput, site-directed mutagenesis. Each residue was individually mutated to alanine, with alanine codons mutated to serine. The mutant library was arrayed in 384-well microplates and transiently transfected into HEK293-T. Following transfection, cells were incubated with the indicated antibodies (IgG or Fab) at concentrations pre-determined using an independent immunofluorescence titration curve on wild type CD33. […] Binding of each antibody to each mutant clone was determined in duplicates. For each point, background fluorescence was subtracted from the raw data, which were then normalized to antibody reactivity with wild type CD33.
(§2) Antibodies were screened for binding to the human CD33 variants in IgG format. […] For each mutation, background fluorescence was subtracted from the raw data, which were then normalized to antibody reactivity with wild-type CD33.

human CD33 L134Q = human CD33 L134Q (human, UniProt P20138 18-364)
Experimental: as §1, §2

human CD33 L134T = human CD33 L134T (human, UniProt P20138 18-364)
Experimental: as §1, §2

human CD33 R122I = human CD33 R122I (human, UniProt P20138 18-364)
Experimental: as §1, §2

human CD33 P132S = human CD33 P132S (human, UniProt P20138 18-364)
Experimental: as §1, §2

human CD33 P132K = human CD33 P132K (human, UniProt P20138 18-364)
Experimental: as §1, §2

human CD33 K52G = human CD33 K52G (human, UniProt P20138 18-364)
Experimental: as §1, §2

human CD33 R122E = human CD33 R122E (human, UniProt P20138 18-364)
Experimental: as §1, §2

human CD33 K52S = human CD33 K52S (human, UniProt P20138 18-364)
Experimental: as §1, §2

human CD33 S131Y = human CD33 S131Y (human, UniProt P20138 18-364)
Experimental: as §1, §2

human CD33 P132V = human CD33 P132V (human, UniProt P20138 18-364)
Experimental: as §1, §2

human CD33 S131N = human CD33 S131N (human, UniProt P20138 18-364)
Experimental: as §1, §2

human CD33 S131M = human CD33 S131M (human, UniProt P20138 18-364)
Experimental: as §1, §2

human CD33 P132L = human CD33 P132L (human, UniProt P20138 18-364)
Experimental: as §1, §2

human CD33 S131W = human CD33 S131W (human, UniProt P20138 18-364)
Experimental: as §1, §2

human CD33 P132N = human CD33 P132N (human, UniProt P20138 18-364)
Experimental: as §1, §2

human CD33 V56R = human CD33 V56R (human, UniProt P20138 18-364)
Experimental: as §1, §2

human CD33 P132F = human CD33 P132F (human, UniProt P20138 18-364)
Experimental: as §1, §2

human CD33 S131T = human CD33 S131T (human, UniProt P20138 18-364)
Experimental: as §1, §2

human CD33 P132D = human CD33 P132D (human, UniProt P20138 18-364)
Experimental: as §1, §2

human CD33 S131F = human CD33 S131F (human, UniProt P20138 18-364)
Experimental: as §1, §2

human CD33 K52Y = human CD33 K52Y (human, UniProt P20138 18-364)
Experimental: as §1, §2

human CD33 D51Y = human CD33 D51Y (human, UniProt P20138 18-364)
Experimental: as §1, §2

human CD33 S131K = human CD33 S131K (human, UniProt P20138 18-364)
Experimental: as §1, §2

human CD33 M120V = human CD33 M120V (human, UniProt P20138 18-364)
Experimental: as §1, §2

human CD33 S131I = human CD33 S131I (human, UniProt P20138 18-364)
Experimental: as §1, §2

human CD33 S131H = human CD33 S131H (human, UniProt P20138 18-364)
Experimental: as §1, §2

human CD33 M120L = human CD33 M120L (human, UniProt P20138 18-364)
Experimental: as §1, §2

human CD33 P132Q = human CD33 P132Q (human, UniProt P20138 18-364)
Experimental: as §1, §2

human CD33 S131G = human CD33 S131G (human, UniProt P20138 18-364)
Experimental: as §1, §2

human CD33 K52T = human CD33 K52T (human, UniProt P20138 18-364)
Experimental: as §1, §2

human CD33 P132H = human CD33 P132H (human, UniProt P20138 18-364)
Experimental: as §1, §2

human CD33 R122S = human CD33 R122S (human, UniProt P20138 18-364)
Experimental: as §1, §2

human CD33 R122G = human CD33 R122G (human, UniProt P20138 18-364)
Experimental: as §1, §2

human CD33 K52H = human CD33 K52H (human, UniProt P20138 18-364)
Experimental: as §1, §2

human CD33 P132Y = human CD33 P132Y (human, UniProt P20138 18-364)
Experimental: as §1, §2

human CD33 K52I = human CD33 K52I (human, UniProt P20138 18-364)
Experimental: as §1, §2

human CD33 R122T = human CD33 R122T (human, UniProt P20138 18-364)
Experimental: as §1, §2

Sequence of human CD33 P132D (P20138 18-364 P132D limits assumed): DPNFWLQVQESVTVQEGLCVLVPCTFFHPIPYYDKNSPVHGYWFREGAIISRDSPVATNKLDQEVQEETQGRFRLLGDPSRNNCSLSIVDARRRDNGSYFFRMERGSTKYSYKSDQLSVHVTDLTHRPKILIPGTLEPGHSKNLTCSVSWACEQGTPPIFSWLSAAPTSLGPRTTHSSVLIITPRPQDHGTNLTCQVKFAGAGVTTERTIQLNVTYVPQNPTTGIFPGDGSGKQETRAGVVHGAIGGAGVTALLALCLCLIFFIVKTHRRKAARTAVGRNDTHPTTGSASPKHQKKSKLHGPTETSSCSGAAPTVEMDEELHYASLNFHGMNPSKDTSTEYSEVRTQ
Sequence of human CD33 S131G (P20138 18-364 S131G limits assumed): as the sequence (P20138 18-364 P132D limits assumed) above, with S114G, D115P counted along it
Sequence of human CD33 S131T (P20138 18-364 S131T limits assumed): as the sequence (P20138 18-364 P132D limits assumed) above, with S114T, D115P counted along it
Sequence of human CD33 R122E (P20138 18-364 R122E limits assumed): as the sequence (P20138 18-364 P132D limits assumed) above, with R105E, D115P counted along it
Sequence of human CD33 S131W (P20138 18-364 S131W limits assumed): as the sequence (P20138 18-364 P132D limits assumed) above, with S114W, D115P counted along it
Sequence of human CD33 P132S (P20138 18-364 P132S limits assumed): as the sequence (P20138 18-364 P132D limits assumed) above, with D115S counted along it
Sequence of human CD33 R122S (P20138 18-364 R122S limits assumed): as the sequence (P20138 18-364 P132D limits assumed) above, with R105S, D115P counted along it
Sequence of human CD33 K52T (P20138 18-364 K52T limits assumed): as the sequence (P20138 18-364 P132D limits assumed) above, with K35T, D115P counted along it
Sequence of human CD33 P132K (P20138 18-364 P132K limits assumed): as the sequence (P20138 18-364 P132D limits assumed) above, with D115K counted along it
Sequence of human CD33 P132Y (P20138 18-364 P132Y limits assumed): as the sequence (P20138 18-364 P132D limits assumed) above, with D115Y counted along it
Sequence of human CD33 S131M (P20138 18-364 S131M limits assumed): as the sequence (P20138 18-364 P132D limits assumed) above, with S114M, D115P counted along it
Sequence of human CD33 K52S (P20138 18-364 K52S limits assumed): as the sequence (P20138 18-364 P132D limits assumed) above, with K35S, D115P counted along it
Sequence of human CD33 S131K (P20138 18-364 S131K limits assumed): as the sequence (P20138 18-364 P132D limits assumed) above, with S114K, D115P counted along it
Sequence of human CD33 R122F (P20138 18-364 R122F limits assumed): as the sequence (P20138 18-364 P132D limits assumed) above, with R105F, D115P counted along it

Binder | Mean % WT Binding (human CD33 R122F) [%] | Mean % WT Binding (human CD33 L134Q) [%] | Mean % WT Binding (human CD33 L134T) [%] | Mean % WT Binding (human CD33 R122I) [%] | Mean % WT Binding (human CD33 P132S) [%] | Mean % WT Binding (human CD33 P132K) [%] | Mean % WT Binding (human CD33 K52G) [%] | Mean % WT Binding (human CD33 R122E) [%] | Mean % WT Binding (human CD33 K52S) [%] | Mean % WT Binding (human CD33 S131Y) [%] | Mean % WT Binding (human CD33 P132V) [%] | Mean % WT Binding (human CD33 S131N) [%] | Mean % WT Binding (human CD33 S131M) [%] | Mean % WT Binding (human CD33 P132L) [%] | Mean % WT Binding (human CD33 S131W) [%] | Mean % WT Binding (human CD33 P132N) [%] | Mean % WT Binding (human CD33 V56R) [%] | Mean % WT Binding (human CD33 P132F) [%] | Mean % WT Binding (human CD33 S131T) [%] | Mean % WT Binding (human CD33 P132D) [%] | also measured
B1 | 92.5 | 47.1 | 88.4 | 107 | 3.2 | 2.2 | 105 | 96 | 107 | 24.5 | 84.6 | 84.6 | 4.3 | 6.1 | 1.1 | 2.2 | 93.2 | 1.6 | 99.5 | 87.6 | Mean % WT Binding (human CD33 S131F): 2.4%; Mean % WT Binding (human CD33 K52Y): 26.3%; Mean % WT Binding (human CD33 D51Y): 71.3%; Mean % WT Binding (human CD33 S131K): 2.5%; Mean % WT Binding (human CD33 M120V): 97%; Mean % WT Binding (human CD33 S131I): 24%; Mean % WT Binding (human CD33 S131H): 68.5%; Mean % WT Binding (human CD33 M120L): 101%; Mean % WT Binding (human CD33 P132Q): 5.4%; Mean % WT Binding (human CD33 S131G): 101%; Mean % WT Binding (human CD33 K52T): 106%; Mean % WT Binding (human CD33 P132H): 86.6%; Mean % WT Binding (human CD33 R122S): 108%; Mean % WT Binding (human CD33 R122G): 112%; Mean % WT Binding (human CD33 K52H): 86.1%; Mean % WT Binding (human CD33 P132Y): 1.1%; Mean % WT Binding (human CD33 K52I): 71.6%; Mean % WT Binding (human CD33 R122T): 114%
B2 | 90.1 | 62.2 | 96.5 | 86.1 | 105 | 97.1 | 2.6 | 95.8 | 3.8 | 89.5 | 86.9 | 101 | 83.8 | 89.6 | 94.5 | 101 | 87.4 | 68.5 | 89 | 90.5 | Mean % WT Binding (human CD33 S131F): 82.3%; Mean % WT Binding (human CD33 K52Y): 2%; Mean % WT Binding (human CD33 D51Y): 57.1%; Mean % WT Binding (human CD33 S131K): 96.4%; Mean % WT Binding (human CD33 M120V): 85.9%; Mean % WT Binding (human CD33 S131I): 84.8%; Mean % WT Binding (human CD33 S131H): 96.8%; Mean % WT Binding (human CD33 M120L): 103%; Mean % WT Binding (human CD33 P132Q): 88.4%; Mean % WT Binding (human CD33 S131G): 97.1%; Mean % WT Binding (human CD33 K52T): 5%; Mean % WT Binding (human CD33 P132H): 88.2%; Mean % WT Binding (human CD33 R122S): 90.6%; Mean % WT Binding (human CD33 R122G): 94.9%; Mean % WT Binding (human CD33 K52H): 59.7%; Mean % WT Binding (human CD33 P132Y): 84.3%; Mean % WT Binding (human CD33 K52I): 1.9%; Mean % WT Binding (human CD33 R122T): 83.2%
